The results in this text go back to publication PMC7618375 (2024).

The target of this test is SETDB1 peptide trimethylated at K1178 (human (by the printed UniProt entry), UniProt Q15047, trimethyl-lysine at 1178). The test can be described thus: ITC. For orientation: Isothermal titration calorimetry measures the heat released or taken up as one component is titrated into another.

The Kd is the equilibrium constant for the complex coming apart.

A value given as a limit tells only on which side of the number the result lay.

B1: MPP8 chromodomain (CD, residues 55-116) (domain or fragment)
chain: GEDVFEVEKILDMKTEGGKVLYKVRWKGYTSDDDTWEPEIHLEDCKEVLLEFRKKIAENKAK
B1: the Kd is > 80 µM.
